The target in this test is GluA1::SNAP396 (UniProt P19490).

Numbering of substitutions follows the chain as printed.

Chain of UniProt P19490 (P19490 19-907): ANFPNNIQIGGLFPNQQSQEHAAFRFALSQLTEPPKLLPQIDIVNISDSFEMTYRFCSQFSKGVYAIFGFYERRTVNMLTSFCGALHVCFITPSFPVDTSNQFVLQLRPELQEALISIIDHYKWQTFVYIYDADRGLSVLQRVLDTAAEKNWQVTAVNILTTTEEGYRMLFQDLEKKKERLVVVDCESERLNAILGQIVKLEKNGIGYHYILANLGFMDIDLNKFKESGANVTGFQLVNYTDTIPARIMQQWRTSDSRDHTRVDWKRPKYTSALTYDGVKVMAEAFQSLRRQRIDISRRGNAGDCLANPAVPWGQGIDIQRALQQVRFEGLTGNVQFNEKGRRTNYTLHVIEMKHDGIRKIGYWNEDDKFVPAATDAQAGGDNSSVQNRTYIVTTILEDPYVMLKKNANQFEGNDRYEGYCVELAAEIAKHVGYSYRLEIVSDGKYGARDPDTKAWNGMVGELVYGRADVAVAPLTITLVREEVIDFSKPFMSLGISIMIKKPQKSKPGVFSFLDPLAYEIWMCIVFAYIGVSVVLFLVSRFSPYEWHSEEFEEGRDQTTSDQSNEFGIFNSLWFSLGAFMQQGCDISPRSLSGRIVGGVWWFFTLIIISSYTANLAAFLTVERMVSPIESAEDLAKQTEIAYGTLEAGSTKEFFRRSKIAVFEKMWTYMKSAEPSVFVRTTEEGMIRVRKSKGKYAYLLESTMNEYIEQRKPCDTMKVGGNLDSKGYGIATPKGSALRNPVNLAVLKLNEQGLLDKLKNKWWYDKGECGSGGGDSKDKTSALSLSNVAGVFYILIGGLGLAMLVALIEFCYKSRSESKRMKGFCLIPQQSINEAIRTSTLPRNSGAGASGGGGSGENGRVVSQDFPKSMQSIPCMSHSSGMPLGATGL

B1: γ8::eGFP (natural protein)
chain: MESLKRWNEERGLWCEKGVQVLLTTIGAFAAFGLMTIAISTDYWLYTRALICNTTNLTAGDDGPPHRGGSGSSEKKDPGGLTHSGLWRICCLEGLKRGVCVKINHFPEDTDYDHDSAEYLLRVVRASSIFPILSAILLLLGGVCVAASRVYKSKRNIILGAGILFVAAGLSNIIGVIVYISANAGEPGPKRDEEKKNHYSYGWSFYFGGLSFILAEVIGVLAVNIYIERSREAHCQSRSDLLKAGGGAGGSGGSGPSAILRLPSYRFRYRRRSRSSSRGSSEASPSRDASPGGPGGPGFASTDISMYTLSRDPSKGSVAAGLASAGGGGGGAGVGAYGGAAGAAGGGGTGSERDRGSSAGFLTLHNAFPKEAASGVTVTVTGPPAAPAPAPPAPAAPAPGTLSKEAAASNTNTLNRKTTPV
For B1, the recovery from desensitization τrec, whole-cell patch clamp, HEK293T cells with untagged GluA1 (flip isoform) and γ8::eGFP (GluA1 alone 162.6) stood at 40.9 ms.

B2: γ8 S72* (natural protein)
chain: B1 chain with S72K
modifications: TCO*A (trans-cyclooct-2-ene-L-lysine) at 72, clicked with H-Tet-Cy3
As for B2, the recovery from desensitization τrec, whole-cell patch clamp, HEK293T cells with untagged GluA1 (flip isoform) and γ8 S72*::eGFP (GluA1 alone 162.6) was 45.8 ms.

B3: γ2 S44* (natural protein)
chain: MGLFDRGVQMLLTTVGAFAAFSLMTIAVGTDYWLYSRGVCKTKKVSENETSKKNEEVMTHSGLWRTCCLEGNFKGLCKQIDHFPEDADYEADTAEYFLRAVRASSIFPILSVILLFMGGLCIAASEFYKTRHNIILSAGIFFVSAGLSNIIGIIVYISANAGDPSKSDSKKNSYSYGWSFYFGALSFIIAEMVGVLAVHMFIDRHKQLRATARATDYLQASAITRIPSYRYRYQRRSRSSSRSTEPSHSRDASPVGVKGFNTLPSTEISMYTLSRDPLKAATTPTATYNSDRDNSFLQVHNCIQKDSKDSLHANTANRRTTPV
modifications: TCO*A (trans-cyclooct-2-ene-L-lysine) at 44, clicked with H-Tet-Cy3
With B3, the recovery from desensitization τrec, whole-cell patch clamp, HEK293T cells with untagged GluA1 (flip isoform) and γ2 S44*::eGFP (GluA1 alone 162.6) worked out at 62.3 ms.

B4: γ2::eGFP (natural protein)
chain: B3 chain with K44S
For B4, the recovery from desensitization τrec, whole-cell patch clamp, HEK293T cells with untagged GluA1 (flip isoform) and γ2::eGFP (GluA1 alone 162.6) came to 57.1 ms.
